According to publication PMC8795524:

Legend:
Test in all cases: EMSA
SAMD9 134-385 = target: T1, SAMD9 134-385 (Homo sapiens, UniProt Q5K651 134-385)
T1 sequence: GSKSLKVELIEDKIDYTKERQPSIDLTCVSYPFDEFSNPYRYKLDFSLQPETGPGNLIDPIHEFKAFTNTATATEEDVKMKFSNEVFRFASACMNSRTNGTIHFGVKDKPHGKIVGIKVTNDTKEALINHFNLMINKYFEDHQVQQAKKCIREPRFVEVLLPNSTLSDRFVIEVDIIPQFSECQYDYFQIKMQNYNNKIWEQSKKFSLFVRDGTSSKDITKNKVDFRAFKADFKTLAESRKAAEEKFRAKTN

SAMD9 134-385 K198E = target: T2, SAMD9 134-385 K198E (Homo sapiens, UniProt Q5K651 134-385, K198E)
T2 sequence: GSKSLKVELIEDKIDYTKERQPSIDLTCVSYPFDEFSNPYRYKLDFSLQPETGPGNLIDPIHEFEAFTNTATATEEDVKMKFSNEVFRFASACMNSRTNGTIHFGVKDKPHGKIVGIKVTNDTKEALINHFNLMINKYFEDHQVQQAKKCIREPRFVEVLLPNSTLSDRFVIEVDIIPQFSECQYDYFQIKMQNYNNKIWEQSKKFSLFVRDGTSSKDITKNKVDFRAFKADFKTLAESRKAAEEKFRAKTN

SAMD9 134-385 K257E = target: T3, SAMD9 134-385 K257E (Homo sapiens, UniProt Q5K651 134-385, K257E)
T3 sequence: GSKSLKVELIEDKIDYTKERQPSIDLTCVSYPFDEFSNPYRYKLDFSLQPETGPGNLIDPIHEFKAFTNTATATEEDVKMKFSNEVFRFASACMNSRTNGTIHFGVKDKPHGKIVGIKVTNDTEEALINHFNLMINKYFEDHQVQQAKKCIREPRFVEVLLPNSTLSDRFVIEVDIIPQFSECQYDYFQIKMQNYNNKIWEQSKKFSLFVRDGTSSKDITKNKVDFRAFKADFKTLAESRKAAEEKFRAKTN

SAMD9 134-385 R221E = target: T4, SAMD9 134-385 R221E (Homo sapiens, UniProt Q5K651 134-385, R221E)
T4 sequence: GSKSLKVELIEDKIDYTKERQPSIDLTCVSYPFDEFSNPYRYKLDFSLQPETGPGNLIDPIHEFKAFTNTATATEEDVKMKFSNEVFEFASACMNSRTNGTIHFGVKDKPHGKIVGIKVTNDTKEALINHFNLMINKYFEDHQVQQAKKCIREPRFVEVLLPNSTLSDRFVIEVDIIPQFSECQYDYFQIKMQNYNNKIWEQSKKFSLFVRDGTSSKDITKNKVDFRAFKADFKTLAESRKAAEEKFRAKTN

B1: 11-nt dsDNA (dsDNA)
DNA 1: GAGAAAGAGAG
DNA 2: CTCTCTTTCTC
B1: no binding (SAMD9 134-385).

B2: 5' 6-FAM 22-nt dsDNA (dsDNA)
DNA 1: GCAAATTAATGATTTATTCAAG
DNA 2: CTTGAATAAATCATTAATTTGC
B2: no binding (SAMD9 134-385 K198E); binds (SAMD9 134-385 K257E); no binding (SAMD9 134-385 R221E).
